Tests used:
[1] = system: human CD34+ cells transplanted into NSG mice; experiment: Xenotransplantation of edited human CD34+ cells in NSG mice; type: in vivo
Method: For transplantation, 3×10^5 CD34+ cells treated for editing at day 5 of culture were injected intravenously into NSG mice after sub-lethal irradiation (150-180 cGy). Sample size was determined by the total number of available treated cells. Mice were attributed to each experimental group randomly. Human CD45+ cell engraftment and the presence of gene-edited cells were monitored by serial collection of blood from the mouse tail and, at the end of the experiment (>20 weeks after transplantation), BM and spleen were harvested and analyzed.
NOD-SCID-IL2Rg^−/− (NSG) mice were purchased from The Jackson Laboratory and were maintained in specific-pathogen-free (SPF) conditions. The procedures involving animals were designed and performed with the approval of the Animal Care and Use Committee of the San Raffaele Hospital (IACUC #749) and communicated to the Ministry of Health and local authorities according to Italian law. For transplantation, 1.5-3×10^5 (for primary) or 2×10^6 (for secondary) CD34^+ treated cells at 24 hours post-editing protocol were injected intravenously into NSG mice after sub-lethal irradiation (180 cGy). Sample size was determined by the total number of available treated cells. Mice were attributed to each experimental group randomly. Human CD45^+ cell engraftment and the percentage of edited GFP^+ cells were monitored by serial collection of blood from the mouse tail over the weeks post-transplantation and at the end of the experiment (18-20 weeks post-transplantation) both spleen and bone-marrow were harvested and analysed.

[2] = system: CDKN1A; experiment: TaqMan assay of CDKN1A gene expression; type: cell-based, human
From the text: For gene expression analyses, total RNA was extracted using the RNeasy Plus Micro Kit (QIAGEN). cDNA was synthetized with SuperScript VILO IV cDNA Synthesis Kit (Invitrogen) and used for Q-PCR in a Viia7 Real-time PCR thermal cycler using TaqMan Gene Expression Assays (Applied Biosystems) mapping to CDKN1A, RPS27L, PHLDA3, APOBEC3H, and HPRT as normalizer. The relative expression of each gene was first normalized to HPRT expression and then represented as fold change relative to the mock-treated sample.

[3] = system: human CD34+ cells; experiment: CFU-C / colony forming cell assay of edited CD34+ cells; type: cell-based; conditions: for erythroid and myeloid clonogenic output compared to standard protocol: FIG. 14G
[4] = system: human CD34+ cells; type: cell-based
Method: CD34+ cells were either freshly purified from human CB after obtaining informed consent and upon approval by the Ospedale San Raffaele Bioethical Committee, or purchased frozen from Lonza. CD34+ cells were edited according to a previously optimized protocol (Schiroli et al. 2017 supra).
Briefly, 5×10^5 CD34+ cells/ml were stimulated in serum-free StemSpan medium (StemCell Technologies) supplemented with penicillin, streptomycin, glutamine, 1 μM SR-1 (Biovision), […] (STEMCell Technologies), 10 μM PGE2 added only at the beginning of the culture (Cayman), and human early-acting cytokines (SCF 100 ng/ml, Flt3-L 100 ng/ml, TPO 20 ng/ml, and IL-6 20 ng/ml; all purchased from Peprotech). After 3 days of prestimulation, cells were washed with PBS and electroporated using P3 Primary Cell 4D-Nucleofector X Kit and program EO-100 (Lonza). Cells were electroporated with 2.5-1.25 μM of RNPs.
Transduction with AAV6 was performed at a dose of 1-2×10^4 vg/cell 15′ after electroporation. GSE56 mRNA was utilized were indicated at a dose of 150 μg/ml. Gene editing efficiency was measured from cultured cells in vitro 3 days after electroporation by flow cytometry measuring the percentage of cells expressing the GFP marker or by digital droplet PCR analysis designing primers and probe on the junction between the vector sequence and the targeted locus and on control sequences utilized as normalizer as previously described (Schiroli et al. 2017 supra).
For HDR ddPCR, primers and probes were designed on the junction between the vector sequence and the targeted locus and on control sequences used for normalization (human TTC5 genes). Thermal conditions for annealing and extension were adjusted for each specific application as follows: AAVS1/Intron 1 IL2RG HDR 3′ integration junction ddPCR: 55° C. for 30 sec, 72° C. for 2 min. Primers and probes for PCR and ddPCR amplifications are shown below.
CD34^+ cells were purchased frozen from Lonza. CD34^+ cells were edited according to a previously optimised protocol (Schiroli, G. et al (2017) Sci Transl Med 9). Briefly, 1-5×10^5 CD34^+ cells/ml were stimulated in serum-free StemSpan medium (StemCell Technologies) supplemented with penicillin, streptomycin, glutamine, 1 μM of the arylhydrocarbon receptor antagonist SR-1 (Biovision), […] of the pyrimidoindole-derivative UM171 (STEMCell Technologies), 10 μM of the 15-hydroxy PGDH competitive inhibitor dmPGE-2 added only at the beginning of the culture (Cayman), and human early-acting cytokines (SCF 100 ng/ml, Flt3-L 100 ng/ml, TPO 20 ng/ml, and IL-6 20 ng/ml; all purchased from Peprotech). After 3 days of pre-stimulation, cells were washed with PBS and electroporated using P3 Primary Cell 4D-Nucleofector X Kit and program EO-100 (Lonza). Cells were electroporated with 1-1.2 μM of RNPs. Where specified, electroporation mixture was supplemented with Ad5-E4orf1, Ad5-E4orf6/7 and GSE56/Ad5-E4orf6/7 mRNAs, which were respectively utilized at doses of 120, 80 and 200 μg/ml, or Ad5-E1B55K and Ad5-E4orf6 mRNAs were used at 120 and 80 μg/ml. All other adenoviral protein variants were used at standard dose 120 μg/ml. Transduction with AAV-6 was performed 15 min post-electroporation at dose of 1-5×10^4 vg/cell. Where specified, CD34+ cells were stimulated for shorter time in culture (0, 24 or 48 hours) and edited as described above. Gene editing efficiency was measured from cultured cells in vitro at 4 days post-editing by flow cytometry measuring the percentage of cells expressing the GFP reporter gene or by digital droplet PCR analysis designing primers and probe on the junction between the vector sequence and the targeted locus and on control sequence utilised as normaliser as previously described (Schiroli, G. et al (2017) Sci Transl Med 9) and Schiroli et al., Cell Stem Cell 2019. […]

B1: GSE56: p53 dominant negative peptide (SEQ ID No. 9), transiently overexpressed from electroporated mRNA (protein)
chain: MDGWCPGRDRRTEEENFRKKEEHCPELPPGSAKRALPTSTSSSPQQKKKPLDGEYFTLKIRGRERFEMFRELNEALELKDARAAEESGDSRAHSSYPKIVS
modifications: amino acid sequence of GSE56
Question: B1 was tested. Which “fraction of HDR-edited cells in the PB, average” value ([1]; 22 weeks post transplantation, IL2RG edited cells, FIG. 4D) did it give?
Answer: 32%

Question: And the “engraftment in the haematopoietic organs” value ([1]; AAVS1, limited dose T0eq=1.5×10^5/mouse, FIG. 12C)?
Answer: significantly higher engraftment

Question: What about the “percentage of human cells in the peripheral blood” value ([1]; CD40LG-edited cells, FIG. 13B) of the same molecule?
Answer: higher percentage of human cells

Question: What about the “percentage of gene correction over time” value ([1]; CD40LG-edited cells, FIG. 13C) of the same molecule?
Answer: more stable percentage of gene correction over time

Question: What about the “percentage of corrected cells in sorted cell types, vs standard” value ([1]; CD40LG-edited cells, endpoint, included CD34+ cells, FIG. 13E) of the same molecule?
Answer: 3- to 6 fold

Question: What about the differentiation output ([1]; IL2RG edited cells, PB lineages, FIG. 4C) of the same molecule?
Answer: without any skewing in the differentiation output

Question: And the “human CD45+ engraftment” value ([1]; IL2RG edited cells, PB of NSG mice, FIG. 4B)?
Answer: increased engraftment

Question: And the “engraftment of treated cells” value ([1]; discussion summary)?
Answer: higher engraftment of treated cells

Question: What about the “reduction of the amplitude of p21 (CDKN1A) activation compared to RNP+AAV6” value ([2]; 24 hours post-editing, FIG. 16E) of the same molecule?
Answer: about 3 fold

Question: What about the “erythroid and myeloid clonogenic output compared to standard protocol” value [3] of the same molecule?
Answer: improved

Question: And the “erythroid and myeloid clonogenic output” value ([3]; sorted populations, FIG. 3F)?
Answer: increased particularly in CD90+ fraction

Question: What about the “increase of GFP expression compared to standard RNP+AAV6” value ([4]; AAVS1, most primitive compartment (CD34+133+90+ / CD90+), 96 hours, FIG. 14C) of the same molecule?
Answer: 1.1 fold

Question: And the “HDR-mediated integration (GFP+ cells) in the CD34+ 133+ 90+ fraction, mean” value ([4]; AAVS1 or IL2RG editing, 3 days)?
Answer: 42%

Question: What about the “overall efficiency of DNA repair” value ([4]; AAVS1 or IL2RG editing, 3 days, FIG. 3C) of the same molecule?
Answer: did not negatively impact overall efficiency of DNA repair

Question: What about the “HDR-mediated integration at the targeted locus” value ([4]; AAVS1 or IL2RG editing, ddPCR, 3 days, FIG. 3C left) of the same molecule?
Answer: promoted HDR-mediated integration at the targeted locus

B2: E4orf6/7: adenoviral protein from adenovirus serotype 5 E4 gene (SEQ ID No. 2), delivered as mRNA (protein)
chain: MTTSGVPFGMTLRPTRSRLSRRTPYSRDRLPPFETETRATILEDHPLLPECNTLTMHNAWTSPSPPVKQPQVGQQPVAQQLDSDMNLSELPGEFINITDERLARQETVWNITPKNMSVTHDMMLFKASRGERTVYSVCWEGGGRLNTRVL
modifications: delivered as mRNA; example amino acid sequence of Ad5-E4orf6/7
Question: Which results are given for B2?
Answer: human CD45+ cell engraftment in bloodstream, between groups ([1]; AAVS1, T0eq=3×10^5/mouse, FIG. 17B): did not show any statistical significance; increase of the fraction of circulating edited cells ([1]; AAVS1, T0eq=3×10^5/mouse, primary transplant, FIG. 17C): 1.5 fold; fraction of edited cells (GFP+ or HDR+) in blood, hematopoietic organs and blood lineages ([1]; AAVS1 edited CB CD34+, FIG. 11): significant higher fraction of edited cells; overall level of engraftment of the human cells ([1]; AAVS1 edited CB CD34+, FIG. 11): does not affect the overall level of engraftment; CDKN1A expression compared to the standard ([2]; 12 hours post-editing, FIG. 16F): about 2 fold; increase in number of myeloid and erythroid colony forming units (CFU) compared to standard ([3]; FIG. 7C): 2 fold; erythroid and myeloid clonogenic output compared to standard protocol [3]: not affected; mean increase in the percentage of primitive HSPC expressing GFP (CD34+CD133+CD90+GFP+) ([4]; AAVS1, CB CD34+, vs standard, all AAV6 doses, FIG. 6B): 1.5 fold; increase in the percentage of targeted CD90+ cells ([4]; AAVS1, cells for NSG transplantation, FIG. 10B): 1.4 fold; editing efficiency (GFP expression) at IL2RG locus ([4]; IL2RG, FIG. 14I): significant editing efficiency increase; HDR edited alleles at AAVS1 locus ([4]; digital PCR in bulk culture, FIG. 14D): significantly increased; HDR-events integrations increase in AAVS1 locus of HSPCs ([4]; discussion): 1.5 fold; editing efficiency by molecular analyses on genomic DNA ([4]; human HSPC, FIG. 8B): reproducibly able to boost editing; mean increase in the fraction of GFP+ cells compared to the standard ([4]; side-by-side, AAVS1, 4 days, FIG. 7A): 1.45 fold; editing efficiency with editing at day 0 to day 2 post-thawing ([4]; total bulk and CD90+ fraction, AAVS1, FIG. 14K): editing efficiency was increased; HDR-mediated integration (genomic DNA) ([4]; vs standard, FIG. 10D): increase levels of HDR-mediated integration

Reference: patent US12558435B2, “Transient inhibition of p53 in gene therapy” (Ospedale San Raffaele S.R.L., priority 2018, dated 2026)
